From US20070218504A1, “HUMAN LEPTIN-DERIVED POLYPEPTIDES AND USES THEREOF” (UNIVERSITY OF PITTSBURGH, priority 2006, published 2007)
“Also recorded” adds a separate entry of the source.

Experiments:
[1] = tested on: insulin-stimulated PI3-kinase activity; test: Insulin-stimulated PI3-kinase activity in 3T3-L1 adipocytes; format: cell-based
[2] = tested on: tyrosine phosphorylation of STAT3; test: Leptin-induced tyrosine phosphorylation of STAT3 in HEK293 cells over-expressing OB-Rb in the presence of CRP (Western blot); format: cell-based, human; details: murine/mouse leptin; HEK293 OB-Rb
Experimental: To determine if the interaction between CRP and leptin dampens the cellular actions of leptin, the ability of leptin to stimulate tyrosine phosphorylation of STAT3 and PI3-kinase activity was assessed in the presence of CRP in vitro. HEK293 cells over-expressing OB-Rb were serum starved for 2 hours before addition of leptin and CRP (CHEMICON or EMD Biosciences). Leptin, in the presence or absence of CRP, was pre-incubated in μ-MEM (with additional 1 mM Ca^2+) for 30 minutes at 37° C. before being applied to the cells. After a 30-minute incubation with leptin, the cells were harvested in lysis buffer (18). The resultant protein extract was subjected to a Western blot analysis using an anti-phospho-STAT3 specific antibody (Cell Signaling, Beverly, Mass.). For studies involving primary hypothalamic neurons, the hypothalamus from rats was surgically isolated immediately after euthanasia, and placed in the DMEM for incubation with leptin in the presence or absence of CRP.

[3] = target: T1, mouse leptin (Mus musculus, UniProt P41160); test: Immuno-precipitation assay of direct binding of rat CRP and mouse leptin; details: leptin/CRP mixture and rat serum; Western blot with anti-CRP
T1 construct: purchased AF Parlow of NHPP, Torrance, CA
T1 sequence (P41160 22-167): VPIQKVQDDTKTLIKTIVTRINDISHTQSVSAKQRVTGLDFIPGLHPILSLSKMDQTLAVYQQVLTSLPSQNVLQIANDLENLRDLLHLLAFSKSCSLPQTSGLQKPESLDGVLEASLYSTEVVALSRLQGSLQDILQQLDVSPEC
Experimental: To explore a physical interaction between CRP and leptin, the direct binding of these proteins was determined by an immuno-precipitation assay. Rat CRP was purified from fresh rat serum to >95% purity employing a previously established affinity-purification protocol (20). […] The purified human- and rat-CRP proteins were pre-mixed with recombinant human and mouse leptin, respectively, before addition of antibodies specific for human- and mouse-leptin. The concentrations of CRP and leptin in the precipitation reaction were all within the physiological ranges that have been observed in humans or rats (11 & 15). In parallel experiments, recombinant leptin also was pre-mixed with human- or rat-serum to allow for direct interaction prior to immuno-precipitation. The protein precipitates obtained were subjected to Western blot assays using specific anti-CRP antibodies.

B1: rat CRP: rat C-reactive protein purified from fresh rat serum to >95% purity (protein)
chain: HEDMSKQAFVFPGVSATAYVSLEAESKKPLEAFTVCLYAHADVSRSFSIFSYATKTSFNEILLFWTRGQGFSIAVGGPEILFSASEIPEVPTHICATWESATGIVELWLDGKPRVRKSLQKGYIVGTNASIILGQEQDSYGGGFDANQSLVGDIGDVNMWDFVLSPEQINAVYVGRVFSPNVLNWRALKYETHGDVFIKPQLWPLTDCCES
effect on insulin-stimulated PI3-kinase activity [1]: did not block | effect of CRP on murine leptin-induced tyrosine phosphorylation of STAT3 [2]: attenuating effects; also recorded: attenuate | co-precipitation of CRP with anti mouse-leptin antibody [3]: could bring down rat CRP
